B1: Histone chaperone RTT106 (Saccharomyces cerevisiae), P40161 (parent)
chain: MSKLFLDELPESLSRKIGTVVRVLPSSLEIFEELYKYALNENSNDRSGRHKKPRIDVSSDLLKTDEISETNTIFKLEGVSVLSPLRKKLDLVFYLSNVDGSPVITLLKGNDRELSIYQLNKNIKMASFLPVPEKPNLIYLFMTYTSCEDNKFSEPVVMTLNKENTLNQFKNLGLLDSNVTDFEKCVEYIRKQAILTGFKISNPFVNSTLVDTDAEKINSFHLQCHRGTKEGTLYFLPDHIIFGFKKPILLFDASDIESITYSSITRLTFNASLVTKDGEKYEFSMIDQTEYAKIDDYVKRKQMKDKSMSEELKAKSKSKGQATDGTADQPSILQEATRQMQDEKKAGVFSDDDEENDQNFEAESDLSDGSGQESSDGAEDGEEAEEDDEEDDEEEDKKGQSALNRDNSFASINGQPEQELQYKEFKEPLELEDIPIEIDNDDDEDDEDGSGVEYD

Variants of: B1
Conditions: with h3_yeast HHT1, P61830

Variant	effect of a mutation on the interaction
MSKLFLDELPESLSRKIGTVVRVLPSSLEIFEELYKYALNENSNDRSGRHKKPRIDVSSDLLKTDEISETNTIFKLEGVSVLSPLAKKLDLVFYLSNVDGSPVITLLKGNDRELSIYQLNKNIKMASFLPVPEKPNLIYLFMTYTSCEDNKFSEPVVMTLNKENTLNQFKNLGLLDSNVTDFEKCVEYIRKQAILTGFKISNPFVNSTLVDTDAEKINSFHLQCHRGTKEGTLYFLPDHIIFGFKKPILLFDASDIESITYSSITRLTFNASLVTKDGEKYEFSMIDQTEYAKIDDYVKRKQMKDKSMSEELKAKSKSKGQATDGTADQPSILQEATRQMQDEKKAGVFSDDDEENDQNFEAESDLSDGSGQESSDGAEDGEEAEEDDEEDDEEEDKKGQSALNRDNSFASINGQPEQELQYKEFKEPLELEDIPIEIDNDDDEDDEDGSGVEYD [R86A]	disrupting interaction strength
MSKLFLDELPESLSRKIGTVVRVLPSSLEIFEELYKYALNENSNDRSGRHKKPRIDVSSDLLKTDEISETNTIFKLEGVEVLSPLRKKLDLVFYLSNVDGSPVITLLKGNDRELSIYQLNKNIKMASFLPVPEKPNLIYLFMTYTSCEDNKFSEPVVMTLNKENTLNQFKNLGLLDSNVTDFEKCVEYIRKQAILTGFKISNPFVNSTLVDTDAEKINSFHLQCHRGTKEGTLYFLPDHIIFGFKKPILLFDASDIESITYSSITRLTFNASLVTKDGEKYEFSMIDQTEYAKIDDYVKRKQMKDKSMSEELKAKSKSKGQATDGTADQPSILQEATRQMQDEKKAGVFSDDDEENDQNFEAESDLSDGSGQESSDGAEDGEEAEEDDEEDDEEEDKKGQSALNRDNSFASINGQPEQELQYKEFKEPLELEDIPIEIDNDDDEDDEDGSGVEYD [S80E]	disrupting interaction strength
MSKLFLDELPESLSRKIGTVVRVLPSSLEIFEELYKYALNENSNDRSGRHKKPRIDVSSDLLKTDEISETNTIFKLEGVSVLSPLRKKLDLVFYLSNVDGSPVITLLKGNDRELSIYQLNKNIKMASFLPVPEKPNLIYLFMTYTSCEDNKFSEPVVMTLNKENTLNQFKNLGLLDSNVTDFEKCVEYIRKQAILTGFKISNPFVNSTLVDTDAEKINSFHLQCHRGTKEGTLYFLPDHIIFGFKKPILLFDASDIESITYSSIERLTFNASLVTKDGEKYEFSMIDQTEYAKIDDYVKRKQMKDKSMSEELKAKSKSKGQATDGTADQPSILQEATRQMQDEKKAGVFSDDDEENDQNFEAESDLSDGSGQESSDGAEDGEEAEEDDEEDDEEEDKKGQSALNRDNSFASINGQPEQELQYKEFKEPLELEDIPIEIDNDDDEDDEDGSGVEYD [T265E]	disrupting interaction strength

From IntAct's records for PubMed 22198837
